# Earlier results as cited in article PMC4193333.
# Target: BK channel alpha subunit (UniProt Q12791)
# Chain of UniProt Q12791 (Q12791 whole entry): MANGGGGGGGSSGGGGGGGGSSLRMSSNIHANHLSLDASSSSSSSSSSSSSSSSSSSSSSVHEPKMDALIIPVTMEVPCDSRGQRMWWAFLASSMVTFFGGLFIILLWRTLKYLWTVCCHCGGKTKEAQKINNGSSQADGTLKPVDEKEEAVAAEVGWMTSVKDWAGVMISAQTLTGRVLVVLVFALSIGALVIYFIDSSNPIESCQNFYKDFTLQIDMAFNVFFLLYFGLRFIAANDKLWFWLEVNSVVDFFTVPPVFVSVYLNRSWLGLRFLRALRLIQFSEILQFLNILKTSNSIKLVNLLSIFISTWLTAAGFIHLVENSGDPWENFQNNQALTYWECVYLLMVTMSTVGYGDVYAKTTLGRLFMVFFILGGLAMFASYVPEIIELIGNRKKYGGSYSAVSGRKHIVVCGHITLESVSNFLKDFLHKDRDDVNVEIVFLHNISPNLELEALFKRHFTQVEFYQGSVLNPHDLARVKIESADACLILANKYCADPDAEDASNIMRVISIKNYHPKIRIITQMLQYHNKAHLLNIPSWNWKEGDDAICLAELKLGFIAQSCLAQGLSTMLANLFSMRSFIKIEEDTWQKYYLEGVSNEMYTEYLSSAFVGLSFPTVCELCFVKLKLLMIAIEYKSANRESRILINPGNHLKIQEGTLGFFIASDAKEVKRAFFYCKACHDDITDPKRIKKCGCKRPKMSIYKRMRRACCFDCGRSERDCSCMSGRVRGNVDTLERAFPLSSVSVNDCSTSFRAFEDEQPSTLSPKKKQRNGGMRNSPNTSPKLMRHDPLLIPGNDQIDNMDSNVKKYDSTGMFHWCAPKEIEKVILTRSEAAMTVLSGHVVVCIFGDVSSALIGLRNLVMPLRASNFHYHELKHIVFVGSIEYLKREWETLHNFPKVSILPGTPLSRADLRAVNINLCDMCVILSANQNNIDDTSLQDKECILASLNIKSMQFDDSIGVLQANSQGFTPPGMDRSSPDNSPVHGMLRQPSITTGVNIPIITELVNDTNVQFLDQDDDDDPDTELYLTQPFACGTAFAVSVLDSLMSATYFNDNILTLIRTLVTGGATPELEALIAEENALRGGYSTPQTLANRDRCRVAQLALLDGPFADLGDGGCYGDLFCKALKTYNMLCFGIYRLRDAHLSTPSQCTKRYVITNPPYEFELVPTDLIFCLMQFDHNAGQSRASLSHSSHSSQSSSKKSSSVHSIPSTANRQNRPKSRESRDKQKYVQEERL
substance,measurement,value
Iberiotoxin (IbTX) (from UniProt P24663),Kd,1.5 nM
